Data as given in the Human Domainome abundance scans (Beltran et al. 2025).

B1: Advillin, residues 785 to 819; numbered along this chain, O75366 (parent)
chain: LSEQDFVSVFGITRGQFAALPGWKQLQMKKEKGLF
B2: Receptor-interacting serine/threonine-protein kinase 2, residues 438 to 518; numbered along this chain, O43353 (parent)
chain: QWIQSKREDIVNQMTEACLNQSLDALLSRDLIMKEDYELVSTKPTRTSKVRQLLDTTDIQGEEFAKVIVQKLKDNKQMGLQ

Variants of: B1
Assay: abundance fitness (aPCA) (normalised: wild type 0, dead -1); higher = more abundant; growth selection in yeast, the domain comes from the species named
Conditions: Homo sapiens

Abundance fitness, by site and new letter:
E3: T -0.092, D 0.103, H -0.323, Y -0.543, M -0.461, Q -0.225, S -0.183, K -0.409, G -0.366, C -0.421, P -0.268, I -0.175, A -0.258, N 0.165, R -0.476, F -0.039, W -0.4, L -0.304
D5: T -0.255, Y -0.782, P -0.651, R -0.188, K -0.146, E -0.073, C -1.17, W -1, G -0.188, V -0.521, S -0.031, Q -0.204, L -0.209, M -0.332
I12: N -0.471, G -0.429, Q -0.897, Y -0.306, D -0.442, H -0.633, W -0.999, T -0.531, A -0.445, P -0.713, V -0.089, K -0.312, L -0.101, M 0.128, S -0.629, E -0.592, R -0.629
F10: K -0.319, D -0.316, M -0.305, A -0.398, Y -0.016, G -0.27, C -0.31, V -0.332, L -0.392, E -0.285, H -0.932, W -0.274, T -0.367, P -0.726, S -0.383, N -0.2, Q -0.59
A19: C -0.209, S -0.068, F -0.245, I -0.5, Y -0.409, L -0.137, D -0.068, E 0.021, G -0.114, N -0.052, W -0.654, T -0.254, Q -0.367, P -0.749, M -0.174, H -0.119
L1: W -0.079, R -0.156, S -0.135, A -0.322, G -0.051, K -0.266, E 0.694, N -0.078, C -0.279
F17: C -0.435, P -0.631, T -0.486, G -0.37, M -0.249, V -0.396, Y -0.969, L -0.476, I -0.538, A -0.389, R -0.554, S -0.454, W -0.441, E -0.33, H -0.965, K -0.479, Q -0.344
S8: L -0.238, W -0.439, A 0.052, M 0.003, D -0.081, P -0.506, V -0.117, K 0.156, F -0.476, E 0.119, G -0.026, T -0.024, N -0.329, R 0.023, Y -0.84
V7: G -0.306, W -0.343, F -0.038, Q 0.004, L 0.04, M -0.291, T -0.115, D -0.085, R -0.139, I -0.028, K -0.384, S 0.071, E 0.105, A -0.149
L20: E -0.404, D -0.113, A -0.593, C -0.847
R14: V -0.264, I -0.252, M -0.024, Q -0.037, L -0.322, W -0.349, A -0.121, D -0.431, N -0.611, F -0.117, G -0.317, S -0.169, P -0.116, T -0.205, E -0.024, K 0.145, C -0.095, H -0.262
T13: Y -0.017, A -0.397, L -0.619, I -0.475, G -0.382, M -0.369, D -0.265, Q -0.871, P -0.219, F -0.368, S -0.199, V -0.53, N -0.26, C -0.255, K -0.314, E -0.101
F6: P -0.461, T -0.183, K -0.514, Y -0.224, N -0.928, Q -0.402, I -0.162, C 0.06, G -1.08, V -1.19, H -0.87, R -0.468, E -0.906, W -0.186, D -0.831, A -1.28, S -0.488
G11: W -0.846, V -0.537, F 0.179, P -0.797, D -0.647, A -0.485, R -0.513, E -0.65, L -1.05, T -0.547, M -0.986, K -0.453, S -0.353
G15: E 0.238, Q 0.11, I 0.042, P -0.413, C -0.152, L -0.215, F -0.193, A 0.16, T -0.052, W -0.395, D 0.009, N -0.05, S 0.203, R -0.089, K 0.15, H 0.008, V -0.077
S2: D 0.311, V -0.322, K -0.127, Q -0.416, G -0.078, W -0.305, R -0.282, Y -0.505, L -0.123, T -0.289, E -0.085, C -0.175, M -0.514, P -0.584
V9: Y -0.156, F -0.422, L -0.131, M -0.184, K -0.04, E -0.149, R -0.162, A -0.222, C -0.527, P -0.632, T -0.141, G -0.286, W -0.684, S -0.456, H 0.018, D -0.443
Q4: T -0.202, W -0.267, G -0.001, V 0.002, N -0.317, D -0.592, R -0.11, H -0.277, A -0.064, L 0.016, S 0.019, F -0.063, K 0, I 0.237, E 0.018, P -0.076, C -0.846
A18: E 0.214, R -0.197, S -0.201, C -0.079, L -0.062, N 0.154, K 0.188, M -0.3, Q -0.05, H -0.362, I -0.1, W -0.358, P -0.438, G -0.103
Q16: T -0.192, E -0.053, L -0.382, I -0.396, V -0.422, H -0.183, G -0.378, S -0.211, C -0.43, D -0.347, M -0.279, F -0.302, W -0.626, P -0.355, Y -0.252, R -0.281

Variants of: B2
Assay: as above
Conditions: Homo sapiens

Abundance fitness of substitutions, site by site:
Q81: H -0.419
Q77: H -0.137
N75: R -0.62, P -0.446, V -0.383, W -0.244, Y -0.285, L -0.135, G -0.241, M -0.162, T -0.245, H -0.024, Q -0.046, K -0.535
K76: Q -0.032, G 0.066, V -0.301, D -0.192, S 0.032, N -0.203, T -0.093, W -0.36, E -0.19, H -0.069, L -0.125, F -0.207, R -0.192, P -0.314, A 0.008, Y -0.272, C 0.003
G79: V -0.167, R -0.282, S -0.021
M78: I -0.372
